Assay results taken from patent US20240092853A1 (Hoffmann-La Roche, published 2024).

Molecular target: T1, IL2R(bg)-Fc construct (human IL2R beta extracellular domain fused to Fc(knob) with avi tag, human IL2R gamma … (human, biotin on the C-terminal avi tag (co-expressed BirA)))
T1 construct: Knob-into-hole Fc heterodimer; also called IL2Rβγ; human heterodimeric IL-2 receptor beta/gamma
Assay: ELISA: IL2R(bg)-Fc coated ('100nM IL2R coated'), soluble IL2v in bacterial supernatant adjusted to pH 6 or pH 7.4, washing at the same pH, detection with anti-Flag/HRP
Description: Bacterial supernatant was harvested by centrifugation and pH was adjusted to either pH 6 or pH 7.4 using Bis-Tris buffer (final concentration: 50 mM BisTris, 140 mM NaCL). Supernatant was incubated in Neutravidin plates that were previously coated with the biotinylated IL2R(bg)-Fc construct and blocked with BSA. While extensive washing after 1 h was performed with Bis-Tris washing buffer at the respective pH 6 or 7.4 (50 mM BisTris, 140 mM NaCL, 0.1% Tween), all subsequent steps were performed at pH 6 to avoid any pH-dependent secondary effects. Binding of IL2v to the IL2R(bg)-Fc construct was detected via Flag tag by using an anti-Flag/HRP secondary antibody.

T1 sequence (chain, as listed by the source limits assumed, chain 1 of 2): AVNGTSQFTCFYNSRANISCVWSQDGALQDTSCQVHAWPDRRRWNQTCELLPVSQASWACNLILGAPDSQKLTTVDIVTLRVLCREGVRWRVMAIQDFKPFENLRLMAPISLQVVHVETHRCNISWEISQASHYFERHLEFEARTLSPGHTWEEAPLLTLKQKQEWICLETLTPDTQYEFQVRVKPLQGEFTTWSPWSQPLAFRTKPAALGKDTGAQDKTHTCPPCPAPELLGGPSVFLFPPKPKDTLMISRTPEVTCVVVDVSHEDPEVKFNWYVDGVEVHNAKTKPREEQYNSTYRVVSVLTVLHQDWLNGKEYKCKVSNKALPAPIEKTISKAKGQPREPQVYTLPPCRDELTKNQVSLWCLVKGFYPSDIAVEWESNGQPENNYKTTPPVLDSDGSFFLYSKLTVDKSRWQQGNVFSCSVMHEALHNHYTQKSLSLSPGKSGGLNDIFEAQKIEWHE
T1 sequence (chain, as listed by the source limits assumed, chain 2 of 2): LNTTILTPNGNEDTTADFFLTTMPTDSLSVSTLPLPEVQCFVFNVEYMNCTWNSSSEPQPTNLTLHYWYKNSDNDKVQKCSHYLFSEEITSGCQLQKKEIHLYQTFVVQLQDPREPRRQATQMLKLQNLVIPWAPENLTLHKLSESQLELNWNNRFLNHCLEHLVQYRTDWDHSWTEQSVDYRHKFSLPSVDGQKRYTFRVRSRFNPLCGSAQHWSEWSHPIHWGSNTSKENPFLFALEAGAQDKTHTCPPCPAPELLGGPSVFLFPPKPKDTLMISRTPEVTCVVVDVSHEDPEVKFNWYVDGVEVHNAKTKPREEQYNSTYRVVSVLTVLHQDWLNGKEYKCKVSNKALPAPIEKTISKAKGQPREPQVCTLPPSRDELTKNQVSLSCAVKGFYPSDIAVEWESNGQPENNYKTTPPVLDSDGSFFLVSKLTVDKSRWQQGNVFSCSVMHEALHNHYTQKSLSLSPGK

B1: IL2v (soluble, from the phagemid, in bacterial supernatant) (ligand)
chain: APASSSTKKTQLQLEHLLLDLQMILNGINNYKNPKLTRMLTAKFAMPKKATELKHLQCLEEELKPLEEVLNGAQSKNFHLRPRDLISNINVIVLELKGSETTFMCEYADETATIVEFLNRWITFAQSIISTLT
notes: human IL-2 with T3A, F42A, Y45A, L72G, C125A; also called parental IL2v; not shown: C-terminal His tag and Flag tag of the phagemid
binding result: binds
